Reference: the supplement of paper PMC12764529
± gives the half width of the 95% confidence interval.

What was measured:
[1] = folding stability dG unfold from chymotrypsin proteolysis; higher = more stable
Procedure, shortened: (§1)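 Sequencing followed digestion of designed mini-proteins with trypsin and chymotrypsin, each at 11 concentrations in threefold dilutions together with a no-protease condition. The mini-proteins were under 80 residues, had no cysteine, sat in a PA-tagged cDNA display construct, and were kept only if AlphaFold2 dimer inter-PAE was above 15. From the counts, Bayesian fitting gave K50, and unfolding free energy was derived against a sequence-predicted unfolded-state K50 and a shared folded-state K50, per protease or combined.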

[2] = folding stability dG unfold (combined trypsin and chymotrypsin); higher = more stable
Procedure, shortened: as §1

[3] = folding stability dG unfold from trypsin proteolysis; higher = more stable
Procedure, shortened: as §1

Row | Sequence | folding stability dG unfold [1] | folding stability dG unfold [2] | folding stability dG unfold [3]
1 | SAGGSAGGMKPISRSTYTNPLNGTTITVTKYPETGEYVITLPDGTTYTVPKSVPITSVEEAIKNSAGGSAGG [r6_72_JUSTAS] | 1.32 ± 0.15 kcal/mol | 0.977 ± 0.096 kcal/mol | 0.32 ± 0.066 kcal/mol
2 | SAGGSAGGSAGGGRRLVLVKVPPDVPEEVIREFARRLVEEGVPEPVVVERLEDDYALVLVSAGGSAGGSAGG [r7_283_TrMRF] | 1.23 ± 0.24 kcal/mol | 1.01 ± 0.17 kcal/mol | 0.861 ± 0.21 kcal/mol
3 | SSPLDPAGRFTIEVVFTTSADGTLTATFTITAPGGVPLKTLTRSFTNPSPGKAAAVEEAEALKAEIEAAASA [r9_739_JUSTAS] | 2.35 ± 0.047 kcal/mol | 1.97 ± 0.064 kcal/mol | 1.3 ± 0.025 kcal/mol
4 | SAGGSAGGSASAEIVPLTLTFPVKFKKDPNGKTKEKTVEVKIELYVIRDPNGNLYTIAKISLSAGGSAGGSA [r18_284_TrMRF] | 4.24 ± 0.089 kcal/mol | 3.98 ± 0.15 kcal/mol | 3.01 ± 0.14 kcal/mol
5 | SAGGSAGGSASLEEIKERAREEILKKHPDLPPDEPLTVTVKDPNSSNEYTITFNADGTVVESAGGSAGGSAG [r3_441_JUSTAS] | 0.814 ± 0.052 kcal/mol | 0.837 ± 0.098 kcal/mol | 0.677 ± 0.027 kcal/mol
6 | SAGGSKTIVIDPEKVVKVEVKKNENGEKEIRIVVKNKDGEEKEVTIKPGEKLELPPKVEVVVLPEKSAGGSA [r2_347_TrROS_Hall] | 1.39 ± 0.18 kcal/mol | 0.965 ± 0.19 kcal/mol | -0.517 ± 0.28 kcal/mol
7 | SAGGSASLTVVYPGGETRTFDVSAVSPEFLRAHPDVTVTLPGGEERRLAGDTELSPAGPHTITVPASAGGSA [r15_733_JUSTAS] | 1.8 ± 0.083 kcal/mol | 2.06 ± 0.088 kcal/mol | 2.39 ± 0.11 kcal/mol
8 | SAGGPSIPGEKIRELLEKGYSLEEIVEFLEKENIPIARIEGVEPHPNSITIVFYNPETGEKITAVIGSAGGS [r8_179_TrMRF] | 2.96 ± 0.081 kcal/mol | 2.72 ± 0.14 kcal/mol | 2.02 ± 0.058 kcal/mol
9 | SAMTPEELAARLAEALRREAEEAGLEIVDVRVEYDEETDTVTVEVVVRNKETGELVTRRVEIRSLEELLSAG [r14_409_TrROS_Hall] | 3.23 ± 0.059 kcal/mol | 3.98 ± 0.1 kcal/mol | 4.52 ± 0.14 kcal/mol
10 | SAGGSAGGDTVVIEVDMSEEEALALARALADAGKTVEIVVRDKDGRTRKITITVPPEELELPEESAGGSAGG [r6_62_TrROS_Hall] | 2.11 ± 0.029 kcal/mol | 1.95 ± 0.042 kcal/mol | 1.74 ± 0.019 kcal/mol
11 | SKKVEVKEIEIKLADGSKVKAKIVKLPDGTYRIFVEFPDGRVAVFEIDVNGKIVKVKPLEVFSLEELKKKSA [r9_1075_TrROS_Hall] | 0.836 ± 0.47 kcal/mol | 1.17 ± 0.22 kcal/mol | 1.07 ± 0.12 kcal/mol
12 | SAGGSAGGSAGGGLASEPVEIVEILSVTLVPEANVEVVTVKLPNPGELVTVPASAVPPGLSAGGSAGGSAGG [r7_304_JUSTAS] | 1.16 ± 0.048 kcal/mol | 1.69 ± 0.085 kcal/mol | 2.07 ± 0.13 kcal/mol
13 | SAGGSAAEETYESDGLTVTVRTERGPDGTVRVVVEVRDRDGPLLATLPFTFKAREDEGLSFSVPFPSAGGSA [r15_950_TrMRF] | 1.26 ± 0.099 kcal/mol | 1.34 ± 0.076 kcal/mol | 1.28 ± 0.036 kcal/mol
14 | SAGRITIDPEDWRIEVKPPNGKKREISPDKIQELLREQKQKGKPPTAEEIAEKIMDEFPGYEVEIHPRSAGG [r19_46_TrROS] | 1.22 ± 0.073 kcal/mol | 1.06 ± 0.3 kcal/mol | 0.894 ± 0.1 kcal/mol
15 | SAGVEIKTDPSKPVITITINYTSIEEAKEYIEKLVKEIGAKEVKIKEDPNSNKITATIDLKDIKKIEKLSAG [r5_598_JUSTAS] | 1.46 ± 0.19 kcal/mol | 1.09 ± 0.41 kcal/mol | -0.144 ± 0.52 kcal/mol
16 | SAGGSAGGSAGGAPPGAKFTVKVPSNDNVIPGSVTLGPDGGTVFHFDGPVPEGDYEIVLESAGGSAGGSAGG [r7_627_JUSTAS] | -0.362 ± 0.17 kcal/mol | -0.643 ± 0.15 kcal/mol | -1.63 ± 0.33 kcal/mol
17 | SAGGSKSKIISASVFTTPDGEKVGVIKVLVKDPNGNPHLVIATIYSDGKIKVSVYYNGKVYTFEFDSAGGSA [r2_182_TrMRF] | 3.95 ± 0.037 kcal/mol | 3.52 ± 0.12 kcal/mol | 2.41 ± 0.079 kcal/mol
